In patent US5677143:

Columns and labels:
[1] = molecular target: TRP-185 (cellular TAR RNA binding protein, about 185 kD) (Homo sapiens) (UniProt Q13395); assay: EMSA
Tat (wild-type) (HIV-1) = Tat (wild-type) (HIV-1) (UniProt P04608); assay: EMSA; details: printed as Ka of 6.4x10^-10 M; Scatchard, one tat per TAR RNA

Chain of TRP-185 (cellular TAR RNA binding protein, about 185 kD) (Homo sapiens) (Q13395 whole entry): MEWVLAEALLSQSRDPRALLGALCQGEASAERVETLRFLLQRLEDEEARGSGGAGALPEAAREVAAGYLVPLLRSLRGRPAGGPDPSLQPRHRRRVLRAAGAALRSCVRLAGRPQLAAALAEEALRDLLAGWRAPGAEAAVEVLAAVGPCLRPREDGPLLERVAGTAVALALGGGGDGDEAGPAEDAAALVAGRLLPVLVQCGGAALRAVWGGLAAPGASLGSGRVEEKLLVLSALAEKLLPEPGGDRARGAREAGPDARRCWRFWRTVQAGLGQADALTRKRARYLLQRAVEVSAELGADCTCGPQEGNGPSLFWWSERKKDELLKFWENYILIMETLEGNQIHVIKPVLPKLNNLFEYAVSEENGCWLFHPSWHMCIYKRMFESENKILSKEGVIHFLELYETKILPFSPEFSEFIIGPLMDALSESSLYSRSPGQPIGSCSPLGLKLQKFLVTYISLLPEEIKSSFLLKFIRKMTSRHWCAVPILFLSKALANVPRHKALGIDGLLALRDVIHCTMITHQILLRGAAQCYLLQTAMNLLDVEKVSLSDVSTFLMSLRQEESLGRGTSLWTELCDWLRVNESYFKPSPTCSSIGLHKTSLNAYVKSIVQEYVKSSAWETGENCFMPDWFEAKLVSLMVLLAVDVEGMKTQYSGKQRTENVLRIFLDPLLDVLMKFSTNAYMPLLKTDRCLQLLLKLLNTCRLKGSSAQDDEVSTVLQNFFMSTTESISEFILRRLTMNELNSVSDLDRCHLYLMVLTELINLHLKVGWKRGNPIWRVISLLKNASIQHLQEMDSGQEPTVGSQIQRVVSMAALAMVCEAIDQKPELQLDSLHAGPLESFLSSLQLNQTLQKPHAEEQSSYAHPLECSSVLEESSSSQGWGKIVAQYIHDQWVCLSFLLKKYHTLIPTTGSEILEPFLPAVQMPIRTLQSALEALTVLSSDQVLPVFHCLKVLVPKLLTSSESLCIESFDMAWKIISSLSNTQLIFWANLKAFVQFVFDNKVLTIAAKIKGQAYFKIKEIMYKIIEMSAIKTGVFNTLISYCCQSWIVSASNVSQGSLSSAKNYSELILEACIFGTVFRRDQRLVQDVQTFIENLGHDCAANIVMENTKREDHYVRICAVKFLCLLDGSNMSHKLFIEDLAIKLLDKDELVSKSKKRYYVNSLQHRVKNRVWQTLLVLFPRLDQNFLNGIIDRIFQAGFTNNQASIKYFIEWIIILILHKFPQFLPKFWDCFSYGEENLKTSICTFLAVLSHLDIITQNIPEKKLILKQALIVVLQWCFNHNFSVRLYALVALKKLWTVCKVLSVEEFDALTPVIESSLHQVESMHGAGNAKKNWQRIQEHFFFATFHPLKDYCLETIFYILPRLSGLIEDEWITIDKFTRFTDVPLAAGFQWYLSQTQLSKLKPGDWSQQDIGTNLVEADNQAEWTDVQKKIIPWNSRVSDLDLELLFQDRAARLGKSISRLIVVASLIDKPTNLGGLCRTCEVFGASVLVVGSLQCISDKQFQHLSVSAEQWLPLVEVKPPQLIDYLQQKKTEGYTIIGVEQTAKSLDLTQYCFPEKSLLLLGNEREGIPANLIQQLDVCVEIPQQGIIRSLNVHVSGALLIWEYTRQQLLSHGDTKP

Substance | Kd ([1]; Scatchard, cofactor fraction required with sucrose gradient TRP-185, room temperature, 50 mM KCl) | Kd (Tat (wild-type) (HIV-1)) | Kd ([1]; data not shown)
HIV TAR RNA wild-type (+1/+80) | 0.315 nM | 0.64 nM | –
nonspecific RNA | – | – | 21100 nM
